Test results from the supplement of paper PMC9170038.

Test system: MS2 coat protein
Test: apparent KD of MS2 coat protein; designed switch direction (-1 OFF switch, 1 ON switch): -1; higher = weaker reporter binding
Procedure, shortened: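 Designed RNA switches with common flanks were transcribed on Illumina chips by stalled E. coli RNA polymerase and titrated with SNAP-549-labelled MS2 coat protein, from 0.7 or 1.5 nM doubling to 3 µM, in Tris-HCl pH 7.5 buffer with KCl, MgCl2, BSA, DTT, tRNA and Tween-20. Steps lasted 0.8–1.5 h (lowest) to 10–20 min (highest). Titrations ran without input, with 200 uM small-molecule ligand, or with an oligonucleotide input. Normalised cluster fluorescence was curve-fitted, and apparent KD is the per-design median over clusters.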

[1] = Eterna round: R95, input ligand: FMN 200 uM
[2] = Eterna round: R95, input ligand: microRNA oligo, concentration not stated
[3] = Eterna round: R95, input ligand: none
[4] = input ligand: microRNA oligo, concentration not stated

| Sequence | apparent KD of MS2 coat protein [1] [nM] | apparent KD of MS2 coat protein [2] [nM] | apparent KD of MS2 coat protein [3] [nM] | apparent KD of MS2 coat protein (input ligand: FMN 200 uM) [nM] | apparent KD of MS2 coat protein [4] [nM] | apparent KD of MS2 coat protein (input ligand: none) [nM] |
| --- | --- | --- | --- | --- | --- | --- |
| CGUGCGUAUGUGAGGAUAUGCUGGUCCUUGGAUCGGCAGAAGGCACAUGAGGAUCACCCAUGUGGUGUCGUUCA [salish99_Bmod_ex4_091] (puzzle: Brourd's mod of Exclusion 4) | 31.3 | 108 | 173 | – | – | – |
| CGUGCGUAUGUGAGGAUAUGCUGGUCCUUGGCUCGGCAGAAGGCACAUGAGGAUCACCCAUGUGGUGUCGUACU [salish99_Bmod_ex4_069] (Eterna round: R96, puzzle: Brourd's mod of Exclusion 4) | – | – | – | 291 | 61.1 | 67.5 |
| CGUGCGUAUGUGAGGAUAUGCUGGUCCUUGGCUCGGCAGAAGGCACAUGAGGAUCACCCAUGUGGUGUCGUACU [salish99_Bmod_ex4_069] (puzzle: Brourd's mod of Exclusion 4) | – | 50.2 | – | – | – | – |
| CGUGGACAUAACAAGCUUUACAUGAGGAUCACCCAUGUGAUCAUGCUCGUCUUAUGGUCCACGAAUUAAUUAAUUAA [Stov1/6-C1] (Eterna round: R97, puzzle: Sensor, turn-off variant 1) | – | – | – | 19.5 | – | 19.9 |
| CGUGUACGAGGAUAUAGAUUAGGUGACAUGAGGAUCACCCAUGUGAUCAAUCUAUUUGGUUUAGAAGGUGUACAUG [JR_Ex5_Sub052] (Eterna round: R97, puzzle: Exclusion 5) | – | – | – | 15 | – | 14 |
| CGUUCGCGAGGAUAUGCAUUCGAGUCCACUACGUGUCUGGGACUUGAGGAUCACCCAAGUAGAAGGCGCCUAAA [salish99_ex2_r4_652] (Eterna round: R97, puzzle: Exclusion 2) | – | – | – | 514 | – | 577 |
| CGUUCGCGAGGAUAUGCAUUCGAGUCCAUUACGUGUCUGGGACUUGAGGAUCACCCAAGUAGAAGGCGCCUCAC [salish99_ex2_r4_647] (Eterna round: R97, puzzle: Exclusion 2) | – | – | – | 131 | – | 153 |
| CGUUGGCGAGGAUAUACAUGAGGAUCACCCAUGUGAGAGAAAAAAGUGAGGAAGAAAAGUAGAAGGCGCUGACG [salish99_ex3_r3_050] (puzzle: Exclusion 3) | 350 | 101 | 34.9 | – | – | – |
| CGUUGGCGAGGAUAUACAUGAGGAUCACCCAUGUGAGAGAAAAAAGUGAGGAAGAAAAGUAGAAGGCGCUGACU [salish99_ex3_r3_051] (puzzle: Exclusion 3) | 101 | 31.7 | 54.3 | – | – | – |
| CUAAAAGUCGAGGAUAUGCACCGUUUCGCUGACGCAGAAGGCGACACAUGAGGAUCACCCAUGUCGGUACGCGA [salish99_ex6_r004_456] (Eterna round: R97, puzzle: Exclusion 6) | – | – | – | 27.7 | – | 23.5 |
| CUAACAUGCUGGUGAUCAUACAUGAGGAUCACCCAUGUAACAAGCUUUUUGCUCGUCUUAUAAGAUCACCAGCAUGU [Stov1/9-A4] (Eterna round: R97, puzzle: Sensor, turn-off variant 1) | – | – | – | 16.2 | – | 15.5 |
| CUAACAUGCUGGUGAUCAUACAUGAGGAUCACCCAUGUAACAAGCUUUUUGCUCGUCUUAUAAUUUAAGAUCACCAG [Stov1/7-A4] (Eterna round: R97, puzzle: Sensor, turn-off variant 1) | – | – | – | 17 | – | 14.1 |
| CUAAGUUGGUAAGGAUAUCCUACAUUAUUCUGACCCGUGCAAGCUACAUGAGGAUCACCCAUGUGGGAGAAGGUGCGUUAAAGU [Design 4] (Eterna round: R96, puzzle: Exclusion NG 2) | – | – | – | 23.7 | 21.3 | 24 |
| CUAGAUCUUCGGAUCUAGGACAUGAGGAUCACCCAUGUCACGAGCAGAUCCUCAUGCAAGCUUUUUGCUCGUCUUAU [Sensor v3 - Turn-off variant 1 - 36] (puzzle: Sensor v3, turn-off variant 1) | 133 | 17.4 | 70.1 | – | – | – |
| CUAGCGAAUGUAGGAUAUCGGACUGUUUCAGUCUGAGAAGGACAUGAGGAUCACCCAUGUGUAGCUACGUGAGUAGCACGCUAG [JL ENG1 3.89] (Eterna round: R96, puzzle: Exclusion NG 1) | – | – | – | 58.7 | 16.1 | 27.5 |
| CUAGCGAUUGUAGGAUAUCGGACUGUUUCAGUCUGAGAAGGACAUGAGGAUCACCCAUGUGAACCAACGUGAGUUGGACGCUAG [JL ENG1 3.82] (Eterna round: R96, puzzle: Exclusion NG 1) | – | – | – | 51.1 | 12.5 | 19.4 |
| CUAGCGUAUGUAGGAUAUCGGACUGUUUCAGUCUGAGAAGGACAUGAGGAUCACCCAUGUAUUGCUACGUGAGUAGCUCGCUAG [JL ENG1 3.93] (Eterna round: R96, puzzle: Exclusion NG 1) | – | – | – | 30.1 | 16.8 | 19.6 |

| Sequence | apparent KD of MS2 coat protein [1] [nM] | apparent KD of MS2 coat protein [2] [nM] | apparent KD of MS2 coat protein [3] [nM] | apparent KD of MS2 coat protein (input ligand: FMN 200 uM) [nM] | apparent KD of MS2 coat protein [4] [nM] | apparent KD of MS2 coat protein (input ligand: none) [nM] |
| --- | --- | --- | --- | --- | --- | --- |
| CUAUCGUGAGGAUAUGACCCAUAAGCACUAAAGUAGGUGAGUCAGAAGGCACAUGAGGAUCACCCAUGUGGACC [Eternabot (L1) Solution 47] (Eterna round: R97, puzzle: Exclusion 4) | – | – | – | 59.8 | – | 21.9 |
| CUAUGAGCUGAGGAUAUCUGCAGGUUGUGCCUGGGAGAAGGCAGCACAUGAGGAUCACCCAUGUGACCGAAAUA [Mod Ex6 A.17 by Nando] (Eterna round: R97, puzzle: Exclusion 6) | – | – | – | 195 | – | 50.8 |
| CUAUUCCGAGGAUAUACAUGAGGAUCACCCAUGUCGGGCCUCAGCGUUUAGCGCGUAAGUAGAAGGUGGGUUUC [JL Riri mod 7] (puzzle: Exclusion 3) | – | 27.4 | – | – | – | – |
| CUCAGACAUGAGGAUCACCCAUGUGAGGAUAUGAUGCGAUCGUCGAAAGACGAUAGCAUCAGAAGGUACAAAUG [Fiskers Ex 1 - 20] (puzzle: Exclusion 1) | – | 55.3 | – | – | – | – |
| CUCAGGUCAGGAUAUGUAGACCGGUGCAGACACUACGGGAAACAGAAGGGACAUGAGGAUCACCCAUGUUCGUA [EX4 B.11] (Eterna round: R97, puzzle: Exclusion 4) | – | – | – | 45 | – | 30.4 |
| CUCAUGCCUGAGGAUAUGCUGUACAAAAGUACUGCAGAAGGUAGAACAUGAGGAUCACCCAUGUGGCGAAAGCC [Omei Ex G3] (Eterna round: R97, puzzle: Exclusion 6) | – | – | – | 171 | – | 45.8 |
| CUCAUGUAAGGAUAUUGGCACAUGGAACCUGCUGGUUCUGAUAAGAAGGUACAUGAGGAUCACCCAUGUCCUCG [Eternabot (L2) Solution 89] (Eterna round: R97, puzzle: Exclusion 4) | – | – | – | 48.7 | – | 47.5 |
| CUCCAUACAGGAUAUACAGGCGGUGGAGCCGUAUGAUCAACACAUGAGGAUCACCCAUGUAGAAGGGUGUGUAC [Eternabot (L2) Solution 25] (Eterna round: R97, puzzle: Exclusion 2) | – | – | – | 436 | – | 642 |
| CUCCCUUCAGGAUAUACAUGAGGAUCACCCAUGUGUUCCAGCUAGGAAACUAGCAAAUGUAGAAGGGAAGGGAG [Mat - Exclusion 3 - JL Mod - D4] (Eterna round: R97, puzzle: Exclusion 3) | – | – | – | 183 | – | 90 |
| CUCCGACAUGAGGAUCACCCAUGUGAGGAUAUGUAGCCCAGUUGGACAACUCGAGGUAGCAGAAGGCACAUGCC [Eternabot (L2) Solution 64] (Eterna round: R97, puzzle: Exclusion 1) | – | – | – | 57.6 | – | 27 |
| CUCCGCGCUGUCAGGAUAUCCAGGGCCUACCGGCCGGAGAAGGGACAUGAGGAUCACCCAUGUUCGGGUUAGCA [Eszaquus] (puzzle: Brourd's mod of Exclusion 4) | – | 13.3 | – | – | – | – |
| CUCCGGCGUGUAGGAUAUGGAUCCGAUUAGGAUCCAGAAGGACAUGAGGAUCACCCAUGUACAUGUAAACAGUCAUCACCGGGC [salish99_ExNG1_r04_205] (Eterna round: R96, puzzle: Exclusion NG 1) | – | – | – | 131 | 18.2 | 21.4 |
| CUCCGGCGUGUAGGAUAUGGAUCCGAUUAGGAUCCAGAAGGACAUGAGGAUCACCCAUGUACAUGUCGUCGGUCGUCACCGGGC [salish99_ExNG1_r04_210] (Eterna round: R96, puzzle: Exclusion NG 1) | – | – | – | 52.7 | 22.2 | 32.2 |
| CUCCUCAUGACGCCUAAACACAUGAGGAUCACCCAUGUACAGGCUUUUUGUCGUCUUAUAAUAAAACCGAGGAGGCG [Inletice] (puzzle: Sensor v3, turn-off variant 1) | 14.6 | 65.9 | 15 | – | – | – |
| CUCCUCAUGACGCCUAAAGACAUGAGGAUCACCCAUGUACAGGCUUUUUGUCGUCUUAUAAUAAAACCGAGGAUGCG [Edmate] (puzzle: Sensor v3, turn-off variant 1) | 19.2 | 45.9 | 20.1 | – | – | – |
| CUCCUCAUGGCGCCUAAACACAUGAGGAUCACCCAUGUGCAGGCUUUUUGCCGUCUUAUAAUAAAACCGAGGAUGCG [Vegequ] (puzzle: Sensor v3, turn-off variant 1) | 16.9 | 77.8 | 16.2 | – | – | – |
| CUCGGACAUGAGGAUCACCCAUGUGAGGAUAUGGCGCUAUCGUCAUUAGACGAUUGCGCCAGAAGGCACAAAUG [LRO-Excl1-27] (puzzle: Exclusion 1) | – | 80.7 | – | – | – | – |
